These results are taken from paper PMC9846250.

For orientation: stoichiometry N means the number of molecules, sites or subunits per partner or assembly.

Bounds are passed on as bounds.

For data set [1], the target named is paramyosin from giant squid (Dosidicus gigas) (giant squid (Dosidicus gigas)). The data set can be described thus: static light scattering; Debye plot, 25°C, 90°, paramyosin 0.01-0.1 mg/ml in PBS pH 7.5 with 0.15, 0.5 and 1.0 M KCl; apparent Mw; monomers to dimer.
Data set [2] has the same target. The data set can be described thus: dynamic light scattering; 25°C, 90°, purified paramyosin in PBS pH 7.5 with 0.15, 0.5 and 1 M KCl; two populations by hydrodynamic radius (dimer, aggregates); number fractions calculated from the scattered intensities.
Assay in data set [3]: as above
To be noted: other: dynamic light scattering.

With “paramyosin from giant squid (Dosidicus gigas) (natural protein)”, in data set [1], the stoichiometry N turned out to be 2. Besides, the percent of molecules in dimeric form in data set [2] is > 99%.
Regarding “paramyosin from giant squid (Dosidicus gigas)”, in data set [3], the dimers per aggregate result is “there are ca. 5 dimer paramyosin particles inside an aggregate”.
